Where “and” joins values, the source holds several entries; their conditions need not be identical. Equal entries are not always repeated. Bridges are numbered along the chain shown (N, C = ends). Where no end group is shown, it is not given here. [ ]: non-standard residue; d: D form. Phe(4-NO2) = N[C@@H](Cc1ccc([N+](=O)[O-])cc1)C(=O)O; pT = C[C@@H](OP(=O)(O)O)[C@H](N)C(=O)O; pS = N[C@@H](COP(=O)(O)O)C(=O)O; azidoPhe = azido phenylalanine; β3hS = N[C@@H](CO)CC(=O)O; βAla = NCCC(=O)O
What was measured:
Conditions in all cases: both partners purified
14-3-3γ = molecular target: T1, 14-3-3γ (UniProt P61981 1-247); experiment: fluorescence polarisation; fluorescence anisotropy; 14-3-3γ titrated to FITC-labeled macrocycles F1-F4 and pepD (10 nM); mean ± SD, n = 3
T1 construct: 14-3-3 protein, gamma isoform; also called 14-3-3 protein
T1 sequence (looked up): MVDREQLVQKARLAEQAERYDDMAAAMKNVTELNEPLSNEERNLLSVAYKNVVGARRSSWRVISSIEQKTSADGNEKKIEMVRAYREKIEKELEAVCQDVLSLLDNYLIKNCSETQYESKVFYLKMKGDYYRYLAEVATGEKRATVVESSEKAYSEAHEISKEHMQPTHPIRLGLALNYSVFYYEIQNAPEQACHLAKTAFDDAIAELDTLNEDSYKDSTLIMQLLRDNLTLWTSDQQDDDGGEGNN

14-3-3β = molecular target: T2, 14-3-3β (UniProt P31946 1-246); experiment: fluorescence polarisation; two-dimensional fluorescence anisotropy; 14-3-3β titrated to FITC-labeled F1, F2, F3, F4 or pepD (10 nM) with varying concentrations of ChREBP peptide; fitted to a thermodynamic cooperativity model with KD II fixed at 1.5 µM; n = 2
T2 construct: 14-3-3 protein, beta isoform; also called 14-3-3 protein
T2 sequence (looked up): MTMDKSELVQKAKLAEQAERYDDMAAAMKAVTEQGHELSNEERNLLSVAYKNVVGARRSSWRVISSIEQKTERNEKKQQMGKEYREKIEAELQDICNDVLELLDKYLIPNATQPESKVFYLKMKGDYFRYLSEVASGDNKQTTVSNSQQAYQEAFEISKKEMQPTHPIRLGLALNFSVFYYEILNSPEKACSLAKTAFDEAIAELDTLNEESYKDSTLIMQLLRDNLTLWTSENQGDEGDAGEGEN

[1] = molecular target: T3, full-length human 14-3-3γ protein with a N-terminal His6 tag (human, UniProt P61981 1-247); experiment: ITC; 200 μM macrocycle or pepD titrated to 20 μM 14-3-3γ; 25 mM HEPES pH 8.0, 100 mM NaCl, 10 mM MgCl2, 500 µM TCEP; 25 °C; fitted with SEDPHAT; mean ± SD, n=3
T3 construct: 14-3-3 protein gamma, human, full length; TEV cleavage of the His6 tag is told only for the 14-3-3σ ΔC construct; source: E. coli BL21(DE3), pPROEX HTb, purified (Ni-NTA, dialysis)
T3 sequence (looked up): T1 sequence (looked up)

[2] = molecular target: T4, recombinant 14-3-3γ-Twinstrep protein (human, UniProt P61981 1-247); experiment: SPR; affinity fit (steady-state response against concentration, 1:1 model); Twinstrep-tagged 14-3-3γ captured on a Strep-Tactin XT chip, 2-fold dilutions of Ac-macrocycle or pepD injected; 25 °C; 10 mM HEPES pH 7.4, 200 mM NaCl, 50 μM EDTA, 0.005% P20; two replicates and their average
T4 construct: 14-3-3 protein gamma; The expression of the Twinstrep construct is not described; also called Twinstrep-tagged 14-3-3γ; source: recombinant
T4 sequence (looked up): T1 sequence (looked up)

[3] = molecular target: T4, recombinant 14-3-3γ-Twinstrep protein; experiment: SPR; kinetic fit (1:1 model, global); Twinstrep-tagged 14-3-3γ captured on a Strep-Tactin XT chip (about 1000 RU), 2-fold dilutions of Ac-macrocycle or pepD injected; multi-cycle; 25 °C; 10 mM HEPES pH 7.4, 200 mM NaCl, 50 μM EDTA, 0.005% P20; two replicates and their average
[4] = molecular target: T5, full-length human 14-3-3β protein with a N-terminal His6 tag (human, UniProt P31946 1-246); experiment: fluorescence polarisation; 2D fluorescence anisotropy titration, replicate 2: 14-3-3β titrated (from 250 µM) to FITC-labeled macrocycle or pepD with varying ChREBP peptide starting at 10 μM; KD I (binary affinity of the macrocycle for a site of the 14-3-3 dimer) fitted by the thermodynamic cooperativity model with KD II fixed at 1.5 µM; 10 mM HEPES pH 7.4, 150 mM NaCl, 0.1% Tween20, 0.1% BSA; room temperature
T5 construct: 14-3-3 protein beta/alpha, human, full length; Treated as a dimer in the thermodynamic model (Pp = 14-3-3 dimer); also called Pp (14-3-3 dimer); source: E. coli BL21(DE3), pPROEX HTb, purified (Ni-NTA, dialysis)
T5 sequence (looked up): T2 sequence (looked up)

[5] = molecular target: T5, full-length human 14-3-3β protein with …; experiment: fluorescence polarisation; 2D fluorescence anisotropy titration, replicate 1: 14-3-3β titrated (from 250 µM) to FITC-labeled macrocycle or pepD with varying ChREBP peptide starting at 20 μM; KD I (binary affinity of the macrocycle for a site of the 14-3-3 dimer) fitted by the thermodynamic cooperativity model with KD II fixed at 1.5 µM; 10 mM HEPES pH 7.4, 150 mM NaCl, 0.1% Tween20, 0.1% BSA; room temperature
[6] = molecular target: T5, full-length human 14-3-3β protein with …; experiment: fluorescence polarisation; selectivity assay by fluorescence anisotropy: acetylated 14-3-3 client peptides titrated (from 100 μM, 2-fold) to 10 nM FITC-labeled macrocycle F2 or F4 bound to 14-3-3β (7 μM for 2, 2 μM for 4); 10 mM HEPES pH 7.4, 150 mM NaCl, 0.1% Tween20, 0.1% BSA; room temperature

B1: macrocycle F1 (peptide)
chain: SFSXFKXK
modifications: not fully specified; fluorescein isothiocyanate (FITC) on the side chain of the first lysine; β-alanine after it; phosphoserine; triazole from azido phenylalanine (replacing Nph(+1)) cyclised to the backbone amide nitrogen between Lys(+5) and Nph(+4), linker x = 1; β-homoSer(+2); β-Ala(+3); 4-nitrophenylalanine Nph(+4)
14-3-3γ
  Kd: 57000 nM
14-3-3β
  Kd: 72000 ± 1400 nM

B2: macrocycle F2 (peptide)
chain: SFSXFKXK
modifications: not fully specified; fluorescein isothiocyanate (FITC) on the side chain of the first lysine; β-alanine after it; phosphoserine; triazole from azido phenylalanine (replacing Nph(+1)) cyclised to the backbone amide nitrogen between Lys(+5) and Nph(+4), linker x = 2; β-homoSer(+2); β-Ala(+3); 4-nitrophenylalanine Nph(+4)
14-3-3γ
  Kd: 5700 nM

B3: macrocycle F3 (peptide)
chain: SFSXFKXK
modifications: not fully specified; fluorescein isothiocyanate (FITC) on the side chain of the first lysine; β-alanine after it; phosphoserine; triazole from azido phenylalanine (replacing Nph(+1)) cyclised to the backbone amide nitrogen between Lys(+5) and Nph(+4), linker x = 3; β-homoSer(+2); β-Ala(+3); 4-nitrophenylalanine Nph(+4)
14-3-3γ
  Kd: 230 nM

B4: macrocycle F4 (peptide)
chain: SFSXFKXK
modifications: not fully specified; fluorescein isothiocyanate (FITC) on the side chain of the first lysine; β-alanine after it; phosphoserine; triazole from azido phenylalanine (replacing Nph(+1)) cyclised to the backbone amide nitrogen between Lys(+5) and Nph(+4), linker x = 4; β-homoSer(+2); β-Ala(+3); 4-nitrophenylalanine Nph(+4)
14-3-3γ
  Kd: 2100 nM

B5: macrocycle 3 (peptide)
chain: Ac-[pS][azidoPhe][β3hS][βAla][Phe(4-NO2)]K
modifications: bridge 2-6; not fully specified (bridges); also: triazole of Phe(+1) (from azido phenylalanine) cyclised to backbone amide nitrogen of Lys(+5)
[1]
  Kd: 167 nM
[2]
  Kd: 228 nM and 253 nM and 240 nM
[3]
  Kd: 220 nM and 233 nM and 230 nM

B6: macrocycle 4 (peptide)
chain: SFSXFK
modifications: not fully specified; phosphoserine (position 0); phenylalanine(+1) with a triazole (from azido phenylalanine, replacing Nph(+1)) cyclised to the backbone amide nitrogen of Lys(+5) through an alkyl linker x = 4 (from 5-hexyn-1-ol); β-homoSer(+2); β-Ala(+3); 4-nitrophenylalanine Nph(+4); Ac- (Ac-macrocycles)
[1]
  Kd: 1050 nM
[2]
  Kd: 1180 nM and 1130 nM and 1200 nM
[3]
  Kd: 1140 nM and 1030 nM and 1100 nM

B7: fluorescently labeled macrocycle F1 (peptide)
chain: SFSXFKXK
modifications: not fully specified; phosphoserine; Phe(+1) triazole cyclised to the backbone amide nitrogen of Lys(+5) through a linker x = 1 (from propargyl alcohol); β-homoSer(+2); β-Ala(+3); Nph(+4); β-Ala and a lysine whose side chain carries fluorescein isothiocyanate (FITC) after Lys(+5)
[4]
  Kd: 73000 nM
[5]
  Kd: 71000 nM

B8: fluorescently labeled macrocycle F2 (peptide)
chain: SFSXFKXK
modifications: not fully specified; phosphoserine; Phe(+1) triazole cyclised to the backbone amide nitrogen of Lys(+5) through a linker x = 2 (from 3-butyn-1-ol); β-homoSer(+2); β-Ala(+3); Nph(+4); β-Ala and a lysine whose side chain carries fluorescein isothiocyanate (FITC) after Lys(+5)
[4]
  Kd: 11900 nM
[5]
  Kd: 12600 nM

B9: fluorescently labeled macrocycle F3 (peptide)
chain: SFSXFKXK
modifications: not fully specified; phosphoserine; Phe(+1) triazole cyclised to the backbone amide nitrogen of Lys(+5) through a linker x = 3 (from 4-pentyn-1-ol); β-homoSer(+2); β-Ala(+3); Nph(+4); β-Ala and a lysine whose side chain carries fluorescein isothiocyanate (FITC) after Lys(+5)
[4]
  Kd: 380 nM
[5]
  Kd: 630 nM

B10: fluorescently labeled macrocycle F4 (peptide)
chain: SFSXFKXK
modifications: not fully specified; phosphoserine; Phe(+1) triazole cyclised to the backbone amide nitrogen of Lys(+5) through a linker x = 4 (from 5-hexyn-1-ol); β-homoSer(+2); β-Ala(+3); Nph(+4); β-Ala and a lysine whose side chain carries fluorescein isothiocyanate (FITC) after Lys(+5)
[5]
  Kd: 5000 nM

B11: FITC-labeled pepD (peptide)
chain: [pS][Phe(4-NO2)][β3hS][βAla][Phe(4-NO2)]K
modifications: also: FITC label, site not given here
[4]
  Kd: 7500 nM
[5]
  Kd: 8900 nM

B12: acetylated ChREBP peptide (peptide)
peptide: Ac-RDKIRLNNAIWRAWYIQYVKRRKSPV-NH2
notes: also called S (in the model); source: synthetic peptide, bought: GenScript Biotech Corp
[6]
  binding result: binds

B13: ExoS client peptide (peptide)
peptide: Ac-QGLLDALDLAS-NH2
notes: ExoS (exoenzyme S), 14-3-3 client peptide; source: synthetic peptide, bought: GenScript Biotech Corp
[6]
  binding result: binds

B14: B-RAF client peptide (peptide)
peptide: Ac-RDRSS[pS]APNVH-NH2
SMILES: CC(=O)N[C@@H](CCCNC(=N)N)C(=O)N[C@@H](CC(=O)O)C(=O)N[C@@H](CCCNC(=N)N)C(=O)N[C@@H](CO)C(=O)N[C@@H](CO)C(=O)N[C@@H](COP(=O)(O)O)C(=O)N[C@@H](C)C(=O)N1CCC[C@H]1C(=O)N[C@@H](CC(N)=O)C(=O)N[C@H](C(=O)N[C@@H](Cc1c[nH]cn1)C(N)=O)C(C)C
notes: B-RAF, 14-3-3 client peptide; source: synthetic peptide, bought: GenScript Biotech Corp
[6]
  binding result: binds

B15: USP8 client peptide (peptide)
peptide: Ac-KLKRSY[pS]SPDITQ-NH2
SMILES: CC[C@H](C)[C@H](NC(=O)[C@H](CC(=O)O)NC(=O)[C@@H]1CCCN1C(=O)[C@H](CO)NC(=O)[C@H](COP(=O)(O)O)NC(=O)[C@H](Cc1ccc(O)cc1)NC(=O)[C@H](CO)NC(=O)[C@H](CCCNC(=N)N)NC(=O)[C@H](CCCCN)NC(=O)[C@H](CC(C)C)NC(=O)[C@H](CCCCN)NC(C)=O)C(=O)N[C@H](C(=O)N[C@@H](CCC(N)=O)C(N)=O)[C@@H](C)O
notes: USP8, 14-3-3 client peptide; source: synthetic peptide, bought: GenScript Biotech Corp
[6]
  binding result: binds

B16: TAZ client peptide (peptide)
peptide: Ac-HVRSH[pS]SPASLQLG
notes: TAZ, 14-3-3 client peptide; No C-terminal group is printed for this peptide; source: synthetic peptide, bought: GenScript Biotech Corp
[6]
  binding result: binds

B17: ERα client peptide (peptide)
peptide: Ac-EGFPA[pT]V-OH
SMILES: CC(=O)N[C@@H](CCC(=O)O)C(=O)NCC(=O)N[C@@H](Cc1ccccc1)C(=O)N1CCC[C@H]1C(=O)N[C@@H](C)C(=O)N[C@H](C(=O)N[C@H](C(=O)O)C(C)C)[C@@H](C)OP(=O)(O)O
notes: ERα (estrogen receptor alpha), 14-3-3 client peptide; source: synthetic peptide, bought: GenScript Biotech Corp
[6]
  binding result: binds

B18: NOTCH4 client peptide (peptide)
peptide: Ac-RPRTQ[pS]APHRRRPP-NH2
SMILES: CC(=O)N[C@@H](CCCNC(=N)N)C(=O)N1CCC[C@H]1C(=O)N[C@@H](CCCNC(=N)N)C(=O)N[C@H](C(=O)N[C@@H](CCC(N)=O)C(=O)N[C@@H](COP(=O)(O)O)C(=O)N[C@@H](C)C(=O)N1CCC[C@H]1C(=O)N[C@@H](Cc1c[nH]cn1)C(=O)N[C@@H](CCCNC(=N)N)C(=O)N[C@@H](CCCNC(=N)N)C(=O)N[C@@H](CCCNC(=N)N)C(=O)N1CCC[C@H]1C(=O)N1CCC[C@H]1C(N)=O)[C@@H](C)O
notes: NOTCH4, 14-3-3 client peptide; source: synthetic peptide, bought: GenScript Biotech Corp
[6]
  binding result: binds

B19: ERRγ client peptide (peptide)
peptide: Ac-KRRRK[pS]CQA-NH2
SMILES: CC(=O)N[C@@H](CCCCN)C(=O)N[C@@H](CCCNC(=N)N)C(=O)N[C@@H](CCCNC(=N)N)C(=O)N[C@@H](CCCNC(=N)N)C(=O)N[C@@H](CCCCN)C(=O)N[C@@H](COP(=O)(O)O)C(=O)N[C@@H](CS)C(=O)N[C@@H](CCC(N)=O)C(=O)N[C@@H](C)C(N)=O
notes: ERRγ (estrogen-related receptor gamma), 14-3-3 client peptide; source: synthetic peptide, bought: GenScript Biotech Corp
[6]
  binding result: binds

Reference: article PMC12865133, “Macrocyclic Molecular Glues for the 14‐3‐3/ChREBP Interaction: Affinity and Cooperativity in an Inverse Relationship” (Angewandte Chemie (International Ed. in English), 2025)
